According to article PMC9584954:
Each block holds one substance with its values, some of them ahead of it.

What was measured:
[1] = target: Flag-Strep2-tagged Methanococcus aeolicus McrA (tag at the C-terminus of McrA, CA) (Methanococcus aeolicus); assay: affinity purification with mass spectrometry; Flag-Strep2-tagged subunit expressed with its mcr operon (full or truncated) in M. maripaludis at 37 °C; lysate on Strep-Tactin Superflow Plus in 100 mM Tris-HCl pH 7.6, 150 mM NaCl, eluted with 2.5 mM desthiobiotin, then Q-Sepharose anion exchange; SDS-PAGE, bands identified by MALDI-TOF MS, relative abundance by LC-MS/MS
[2] = target: Flag-Strep2-tagged Methanococcus aeolicus McrB (tag at the N-terminus of McrB, NB) (Methanococcus aeolicus); assay: as above
[3] = target: Flag-Strep2-tagged Methanococcus aeolicus McrG (tag at the N-terminus of McrG, NG) (Methanococcus aeolicus); assay: as above
[4] = target: Methanococcus aeolicus McrB (untagged) (Methanococcus aeolicus); assay: native MS; intact protein mass spectrometry (12 T FT-ICR, nano-electrospray) of purified NG-tagged MCRaeo, 10 μM in 200 mM ammonium acetate pH 7.6
[5] = target: Methanococcus aeolicus McrA (untagged) (Methanococcus aeolicus); assay: as above
[6] = target: Flag-Strep2-tagged Methanococcus aeolicus McrG (tag at the N-terminus of McrG, NG) (Methanococcus aeolicus); assay: as above

percent of the total McrG in the purified complex [1]: 30% | percent of the total McrG in the purified complex [2]: 30% | percent of the total McrG in the purified complex [3]: 30%
Substance: untagged host Methanococcus maripaludis McrG (natural protein)

stoichiometry N [4]: 2
Substance: Methanococcus aeolicus McrB (untagged) (natural protein)

stoichiometry N [5]: 2
Substance: Methanococcus aeolicus McrA (untagged) (natural protein)

stoichiometry N [6]: 2
Substance: Flag-Strep2-tagged Methanococcus aeolicus McrG (tag at the N-terminus of McrG, NG) (natural protein)
